Source: paper PMC9078203
Read-outs that look alike come from different tables or passages of the source.

Experiments:
[1] = target: DIP-β (D. melanogaster); assay: SPR
[2] = target: DIP-γ (D. melanogaster); assay: SPR
[3] = target: DIP-α K81Q (D. melanogaster) (UniProt Q9W4R3); assay: SPR
[4] = target: DIP-α K81Q G74S (D. melanogaster) (UniProt Q9W4R3); assay: SPR
[5] = target: DIP-α G74A (D. melanogaster) (UniProt Q9W4R3); assay: SPR
[6] = target: DIP-α (D. melanogaster) (UniProt Q9W4R3); assay: SPR
[7] = target: DIP-α (D. melanogaster) (UniProt Q9W4R3); assay: SPR; remark: listed apart in the source
[8] = target: DIP-α K81Q (D. melanogaster) (UniProt Q9W4R3); assay: AUC
[9] = target: DIP-α G74A (D. melanogaster) (UniProt Q9W4R3); assay: AUC
[10] = target: DIP-α K81Q G74S (D. melanogaster) (UniProt Q9W4R3); assay: AUC

Substance: Dpr10 (from UniProt Q9VT83 1-408) (natural protein)
- Kd [1]: 33 µM
- Kd [2]: > 1000 µM
- Kd [3]: 31.8 µM
- Kd [4]: 68 µM
- Kd [5]: 0.9 µM

Substance: Dpr10 V144K Q142E G99D (from UniProt Q9VT83 1-408) (natural protein)
- Kd [6]: 50 µM

Substance: Dpr10 Q138D (from UniProt Q9VT83 1-408) (natural protein)
- Kd [7]: 27.8 µM
- Kd [6]: 27.6 µM

Substance: DIP-α K81Q (from UniProt Q9W4R3 1-554) (natural protein)
- Kd [8]: 19.6 µM
- stoichiometry N [8]: 2

Substance: Dpr10 V144K (from UniProt Q9VT83 1-408) (natural protein)
- Kd [6]: 11.3 µM

Substance: DIP-α G74A (from UniProt Q9W4R3 1-554) (natural protein)
- Kd [9]: 50 µM
- stoichiometry N [9]: 2

Substance: DIP-α K81Q G74S (from UniProt Q9W4R3 1-554) (natural protein)
- Kd [10]: 46 µM
- stoichiometry N [10]: 2

Substance: Dpr10 Q142M (from UniProt Q9VT83 1-408) (natural protein)
- Kd [5]: 0.1 µM
- Kd [6]: 0.19 µM
